The results in this text go back to article PMC10513939, “Phylogenetic and functional analysis of cyanobacterial Cytochrome c 6-like proteins” (Frontiers in Plant Science, 2023).

In assay [1] the target is T1, Cytochrome f (soluble form, subunit of the cytochrome b 6 f complex) (Nostoc sp. PCC 7119, UniProt Q93SW9 45-298, heme group; reduced for ITC).
T1 chain: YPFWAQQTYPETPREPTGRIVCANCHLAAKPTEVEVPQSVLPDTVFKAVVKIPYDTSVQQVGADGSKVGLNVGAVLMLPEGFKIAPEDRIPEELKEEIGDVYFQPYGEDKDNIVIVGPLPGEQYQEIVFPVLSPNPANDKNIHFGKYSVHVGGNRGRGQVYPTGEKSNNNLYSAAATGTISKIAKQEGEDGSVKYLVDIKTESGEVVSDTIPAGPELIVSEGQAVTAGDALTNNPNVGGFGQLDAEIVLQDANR
The assay can be described thus: ITC. A general note: ITC needs no label: the signal is the heat of the interaction.

Assay [2] deals with T1, Cytochrome f (soluble form, subunit of …). The assay can be described thus: ITC.
In assay [3] the target is Cytochrome f (soluble form, subunit of the cytochrome b 6 f complex) (Nostoc sp. PCC 7119) (UniProt Q93SW9). The assay can be described thus: ITC; oxidised Cyt c 6, c 6BC or c 6D (400 uM) injected (2 uL injections) into reduced Cyt f (40 uM) in the cell; 5 mM phosphate buffer pH 7.5, 0.02% (w/v) Triton X-100, 25 °C; single binding site model.
For assay [4], the target named is T2, Cytochrome f (soluble form, subunit of the cytochrome b 6 f complex) (Nostoc sp. PCC 7119, UniProt Q93SW9 45-298, heme group; reduced for ITC).
T2 construct: Cytochrome f, subunit of the cytochrome b6f complex, soluble form heterologously expressed; construct as described in earlier work (Albarran et al., 2005); PCC 7120; Soluble form: as far as I recall, the lumenal domain without the C-terminal membrane anchor and without the signal peptide; also called Cyt f; soluble Cyt f; source: E. coli co-transformed with pEC86, extracted from the periplasmic …
T2 sequence (looked up): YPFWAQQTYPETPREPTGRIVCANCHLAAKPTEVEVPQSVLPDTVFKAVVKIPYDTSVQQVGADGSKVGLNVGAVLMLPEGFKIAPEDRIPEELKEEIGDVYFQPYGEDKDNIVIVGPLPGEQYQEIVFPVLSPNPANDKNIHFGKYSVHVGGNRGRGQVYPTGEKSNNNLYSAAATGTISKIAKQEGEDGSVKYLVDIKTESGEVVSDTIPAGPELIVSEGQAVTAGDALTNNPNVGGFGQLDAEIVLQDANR
The assay is described as above. The settings on record: both partners purified.

B1: Cytochrome c 6D (natural protein)
chain: AELPTGAKIFNNNCASCHIGGGNILISEKTLKKEALLKYLEDYETNSIQAIIHQIQYGKNAMPAFKDKLSTEEILEVAAYIFQKAEKDWSNLEKEG
modifications: heme group; oxidised for ITC
In assay [1], B1 gave a Ka of 500000 M⁻¹. Moreover, in assay [2], binding was put at a Kd of 2 µM. Moreover, in assay [3], the fold higher KA and fold lower KD than for Cyt c 6 and Cyt c 6BC with Cyt f worked out at 6 fold; the stoichiometry N – broadly, a count of units in the complex or per binding partner – turned out to be 1.

B2: Cytochrome c 6BC (natural protein)
chain: ENTINGEQIFSVHCAGCHINGSNIIRRGKNLQKKTLKKYGMDSLEAIEAIVTNGKNNMSAYKDRLSEQEIQDVAAYVLEQAEKGWR
modifications: heme group; oxidised for ITC
In assay [1], B2 showed a Ka of 89000 M⁻¹. In assay [2], the Kd (as a rule, the free concentration of one partner at which half of the binding sites on the other are occupied at equilibrium, for simple one-to-one binding) was determined as 11 µM. In assay [3], the stoichiometry N was found to be 1.

B3: Cytochrome c 6 (natural protein, Nostoc sp. PCC 7119, UniProt P0A3X8 26-111, looked up)
chain: ADSVNGAKIFSANCASCHAGGKNLVQAQKTLKKADLEKYGMYSAEAIIAQVTNGKNAMPAFKGRLKPEQIEDVAAYVLGKADADWK
modifications: heme group; oxidised for ITC
notes: Cytochrome c6 (petJ) of Nostoc sp; PCC 7119; also called Cyt c 6; source: E. coli co-transformed with pEC86, extracted from the periplasmic fraction, purified (ion exchange chromatography)
With B3, in assay [4], the “stoichiometry N” value was determined as 1. In assay [1], this molecule registered a Ka of 78000 M⁻¹. In assay [2], this molecule came in with a Kd of 13 µM.
